Assay results taken from patent publication US20060281072A1 (CRUCELL HOLLAND B V, published 2006).
Positions count from the first letter of the chain named.

B1: human IgG1 antibody 023 (antibody, V domains shown)
VH: EVQLVESGGGLVHPGGSLRLSCAGSGFTFSSYAMHWVRQAPGKGLEWVSAIGTGGGTYYADSVMGRFTISRDNSKNTLYLQMNSLRAEDTAVYYCARYDNVMGLYWFDYWGQGTLVTVSS
VL: EIVLTQSPATLSLSPGERATLSCRASQSVSSYLAWYQQKPGQAPRLLIYDASNRATGIPARFSGSGSGTDFTLTISSLEPEDFAVYYCQQRSNWPPAFGGGTKVEIKR
notes: Human IgG1 made from scFv SC02023, expressed in PER.C6 cells; also called pgG102-023C01
B2: human IgG1 antibody 008 (antibody, V domains shown)
VH: EVQLVESGGGLVQPGGSLRLSCAASGFTFSNYTMNWVRQAPGKGLEWVSAISGSGGSTYYADSVKGRFTISRDNSKNTLYLQMNSLRAEDTAVYYCAKDRYSQVHYALDYWGQGTLVTVSS
VL: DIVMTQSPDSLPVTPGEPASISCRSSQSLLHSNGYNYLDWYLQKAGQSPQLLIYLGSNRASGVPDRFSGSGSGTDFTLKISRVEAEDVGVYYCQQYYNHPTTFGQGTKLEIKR
notes: Human IgG1 made from scFv SC02008, expressed in PER.C6 cells; also called pgG102-008C01
B3: phage antibody SC02022 (scFv) (scFv)
scFv: MAEVQLVESGGGLVHPGGSLRLSCAGSGFTFSSYAMHWVRQAPGKGLEWVSAIGTGGGTYYADSVQGRFTISRDNAKNSLYLQMNSLRAEDTAVYYCARYDEPLTIYWFDSWGQGTLVTVSSGGGGSGGGGSGGGGSEIELTQSPATLSLSPGERATLSCRASQSVSSYLAWYQQKPGQAPRLLIYDASNRATGIPARFSGSGSGTDFTLTISSLEPEDFAVYYCQQRSNWPPAFGGGTKVEIKRAA
notes: selected on OX40+ CD4+ T-cells
B4: phage antibody SC02023 (scFv) (scFv)
scFv: B3 scFv with Q66M, A76S, S79T, E102N, P103V, L104M, T105G, I106L, S111Y
notes: as for B3
B5: phage antibody SC02012 (scFv) (scFv)
scFv: MAEVQLVESGGGLVKPGGSLRLSCAASGFTFSNDSMNWMRQAPGKGLEWVANINQDGNEKYYADSVKGRFTISRDNSKNSLYLQMNSLRDEDTALYYCARARAAGTIFDYWGQGTLVTVLEGTGGSGGTGSGTGTSELDIQMTQSPSSLSASVGDRVTITCRASQNVSNYLTWYQQKPGKAGKLLIYAASSLQSGVPSRFSGSGSGTDFTLTISSLQPEDFATYYCQQSYFNPATFGQGTKLEIKRAA
B6: human IgG1 antibody 021 (antibody, V domains shown)
VH: EVQLVESGGGLVQPRGSLRLSCAASGFTFSSYAMNWVRQAPGKGLEWVAVISYDGSNKYYADSVKGRFTISRDNSKNTLYLQMNSLRAEDTAVYYCAKDRYITLPNALDYWGQGTLVTVSS
VL: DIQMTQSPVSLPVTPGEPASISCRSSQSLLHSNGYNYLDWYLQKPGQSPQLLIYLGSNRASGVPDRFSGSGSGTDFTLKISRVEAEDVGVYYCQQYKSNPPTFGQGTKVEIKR
notes: Human IgG1 made from scFv SC02021, expressed in PER.C6 cells; also called pgG102-021C01
B7: phage antibody SC02011 (scFv) (scFv)
scFv: MAEVQLVESGGGVVQPGRSLRLSCAASGFTFSDYTMNWVRQAPGKGLEWVSSISGGSTYYADSRKGRFTISRDNSKNTLYLQMNNLRAEDTAVYYCARDRYFRQQNAFDYWGQGTLVTVLEGTGGSGGTGSGTGTSELDIQMTQSPVTLPVTPGEPASISCRSSQSLLHSNGYNYLDWYLQKPGQSPQLLIYLGSNRASGVPDRFSGSGSGTDFTLKISRVEAEDVGVYYCQQYLTAPPTFGQGTKLEIKRAA
B8: phage antibody SC02008 (scFv) (scFv)
scFv: MAEVQLVESGGGLVQPGGSLRLSCAASGFTFSNYTMNWVRQAPGKGLEWVSAISGSGGSTYYADSVKGRFTISRDNSKNTLYLQMNSLRAEDTAVYYCAKDRYSQVHYALDYWGQGTLVTVLEGTGGSGGTGSGTGTSELDIQMTQSPDSLPVTPGEPASISCRSSQSLLHSNGYNYLDWYLQKAGQSPQLLIYLGSNRASGVPDRFSGSGSGTDFTLKISRVEAEDVGVYYCQQYYNHPTTFGQGTKLEIKRAA
notes: the phage coat protein fusion is not described
B9: human IgG1 antibody 011 (antibody, V domains shown)
VH: EVQLVESGGGVVQPGRSLRLSCAASGFTFSDYTMNWVRQAPGKGLEWVSSISGGSTYYADSRKGRFTISRDNSKNTLYLQMNNLRAEDTAVYYCARDRYFRQQNAFDYWGQGTLVTVSS
VL: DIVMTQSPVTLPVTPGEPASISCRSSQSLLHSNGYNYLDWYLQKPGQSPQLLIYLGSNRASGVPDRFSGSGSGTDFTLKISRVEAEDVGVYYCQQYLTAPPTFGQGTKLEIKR
notes: Human IgG1 made from scFv SC02011, expressed in PER.C6 cells; also called pgG102-011C01

Key:
human OX40-receptor [1] = target: T1, human OX40-receptor (human, UniProt P43489 29-277); assay: flow cytometry on OX40-receptor transfected (filled) and mock-transfected (open) PER.C6 cells, anti-human IgG PE, IgG1 at 20 µg/ml
T1 construct: whole, on cells; also called CD134; ACT-4
T1 sequence (looked up): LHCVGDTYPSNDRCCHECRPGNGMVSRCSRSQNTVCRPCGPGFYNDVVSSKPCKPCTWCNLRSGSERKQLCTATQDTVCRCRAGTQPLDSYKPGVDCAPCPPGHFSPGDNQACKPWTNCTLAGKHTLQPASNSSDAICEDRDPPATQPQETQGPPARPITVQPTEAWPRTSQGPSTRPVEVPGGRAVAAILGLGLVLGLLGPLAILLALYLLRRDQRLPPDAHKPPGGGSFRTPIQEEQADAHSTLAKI
Method: The anti-OX40 receptor IgG1 antibodies were validated for their ability to bind to PER.C6™ cells transfected with human OX40-receptor. To this purpose mock- and human OX40-receptor-transfected cells were stained with the IgG1 antibodies at a concentration of 20 μg/ml at 4° C. Binding of the antibodies called 008, 011, 021 and 023 was visualized using biotinylated goat-anti-human IgG (Fc specific, Caltag) followed by streptavidin-phyco-erythrin (Caltag). The stained cells were analyzed by flow cytometry.

human OX40-receptor [2] = target: T1, human OX40-receptor; assay: flow cytometry on tonsil mononuclear cells, M13 anti-phage PE against CD4 FITC
[3] = target: T2, human OX40-Ig fusion protein (human, UniProt P43489 29-214); assay: phage ELISA on coated human OX40-Ig, anti-M13 peroxidase, absorbance at 492 nm
T2 construct: extracellular domain; Bought (Alexis Biochemicals); not shown: CH2 and CH3 domains of human IgG1
T2 sequence (looked up): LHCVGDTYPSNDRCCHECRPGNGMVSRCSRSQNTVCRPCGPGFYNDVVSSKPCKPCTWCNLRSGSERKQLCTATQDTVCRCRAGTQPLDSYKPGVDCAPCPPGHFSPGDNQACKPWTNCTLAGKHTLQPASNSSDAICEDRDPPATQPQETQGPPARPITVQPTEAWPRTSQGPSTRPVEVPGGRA
Method: Selected phage antibodies that were obtained in the screen described above, were validated in ELISA for specificity. For this purpose, human OX40-Ig was coated to Maxisorp™ ELISA plates. After coating, the plates were blocked in 2% MPBS. The selected phage antibodies were incubated in an equal volume of 4% MPBS. The plates are emptied, washed once in PBS, after which the blocked phages were added. Incubation was allowed to proceed for 1 hour, the plates were washed in PBS containing 0.1% Tween-20 and bound phages were detected using an anti-M13 antibody conjugated to peroxidase. As a control, the procedure was performed simultaneously using a control phage antibody directed against thyroglobulin (De Kruif et al. 1995a and 1995b), which served as a negative control.

human OX40-receptor [4] = target: T1, human OX40-receptor; assay: flow cytometry, mix of OX40-receptor transfected (green, PKH67) and control transfected PER.C6 cells, M13 anti-phage PE
Method: In another assay the phage antibodies were analyzed for their ability to bind PER.C6™ cells that recombinantly express human OX40-receptor. To this purpose PER.C6™ cells were transfected with a plasmid carrying a cDNA sequence encoding human OX40-receptor or with the empty vector and stable transfectants were selected using standard techniques known to a person skilled in the art (Coligan et al., 2001). For flow cytometry analysis, phage antibodies were first blocked in an equal volume of 4% MPBS for 15 minutes at 4° C. prior to the staining of the OX40-receptor- and control transfected PER.C6™ cells. The blocked phages were added to a mixture of unlabelled control transfected PER.C6™ cells and OX40-receptor transfected PER.C6™ cells that were labelled green using a lipophylic dye (PKH67, Sigma). The binding of the phage antibodies to the cells was visualized using a biotinylated anti-M13 antibody (Santa Cruz Biotechnology) followed by streptavidin-phycoerythrin (Caltag).

human OX40-receptor [5] = target: T1, human OX40-receptor; assay: flow cytometry on tonsil mononuclear cells, M13 anti-phage APC against CD4 FITC
Method: Inflamed tonsils were obtained from patients undergoing routine tonsillectomy. Tonsils were minced and the MNC fraction was isolated by density centrifugation. Flow cytometric analysis of the binding of the anti-OX40-receptor phage antibodies to the OX40+ CD4+ T-cells was performed as described above. The CD4+ T-cells were distinguished from total tonsil MNC using a FITC conjugated antibody against CD4. As shown in FIGS. 3A and 3B the selected anti-human OX40-receptor phage antibodies called SC02008, SC02009, SC02010, SC02011, SC02012 and SC02021 selectively stain a subset of CD4+ T-cells within tonsil and synovial fluid mononuclear cells respectively, while they display minor staining of peripheral blood CD4+ T-cells (FIG. 3C).

| Binder | binding result (human OX40-receptor [1]) | binding result [3] | further results |
| --- | --- | --- | --- |
| B1 | binds | – | – |
| B2 | binds | – | – |
| B3 | – | – | binding result (human OX40-receptor [2]): binds |
| B4 | – | – | binding result (human OX40-receptor [2]): binds |
| B5 | – | binds | binding result (human OX40-receptor [4]): binds |
| B6 | binds | – | – |
| B7 | – | binds | binding result (human OX40-receptor [4]): binds |
| B8 | – | binds | binding result (human OX40-receptor [5]): binds |
| B9 | binds | – | – |
